Earlier results in article PMC2879597.

Biological target: hIL-10/sIL-10R1 complex (Homo sapiens) (UniProt P22301)
Sequence (P22301 19-178, chain 1 of 2): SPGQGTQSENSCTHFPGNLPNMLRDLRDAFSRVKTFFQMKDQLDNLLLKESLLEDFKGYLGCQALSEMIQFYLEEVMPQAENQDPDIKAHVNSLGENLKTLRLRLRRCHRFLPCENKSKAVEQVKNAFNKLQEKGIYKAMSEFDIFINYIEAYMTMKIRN
Sequence (Q13651 22-235, chain 2 of 2, further chain): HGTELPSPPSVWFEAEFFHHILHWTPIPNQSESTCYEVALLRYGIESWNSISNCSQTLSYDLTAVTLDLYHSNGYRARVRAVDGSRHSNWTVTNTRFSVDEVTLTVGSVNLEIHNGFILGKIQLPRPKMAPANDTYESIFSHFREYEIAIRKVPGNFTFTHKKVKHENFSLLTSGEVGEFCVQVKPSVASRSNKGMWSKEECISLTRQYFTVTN

Chain of sIL-10R2 ECD (Q08334 20-220): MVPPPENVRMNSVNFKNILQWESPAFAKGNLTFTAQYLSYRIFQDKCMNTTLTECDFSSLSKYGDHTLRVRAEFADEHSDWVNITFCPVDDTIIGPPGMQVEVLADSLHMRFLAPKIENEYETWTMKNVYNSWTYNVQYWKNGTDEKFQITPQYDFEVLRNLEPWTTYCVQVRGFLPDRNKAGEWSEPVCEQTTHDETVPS

Substance: sIL-10R2 ECD (from UniProt Q08334)
- Kd: 250 µM
